# T1: Cft1 (S. cerevisiae, UniProt Q06632 1-1357)
# T1 construct: Cft1, S. cerevisiae, subunit of the polymerase module of CPF; E. coli codon-optimized gene (GeneArt); source: Sf9, baculovirus, co-expressed with Mpe1-SII, in lysate; also as subunit of the purified polymerase module (Sf9)
# T1 sequence: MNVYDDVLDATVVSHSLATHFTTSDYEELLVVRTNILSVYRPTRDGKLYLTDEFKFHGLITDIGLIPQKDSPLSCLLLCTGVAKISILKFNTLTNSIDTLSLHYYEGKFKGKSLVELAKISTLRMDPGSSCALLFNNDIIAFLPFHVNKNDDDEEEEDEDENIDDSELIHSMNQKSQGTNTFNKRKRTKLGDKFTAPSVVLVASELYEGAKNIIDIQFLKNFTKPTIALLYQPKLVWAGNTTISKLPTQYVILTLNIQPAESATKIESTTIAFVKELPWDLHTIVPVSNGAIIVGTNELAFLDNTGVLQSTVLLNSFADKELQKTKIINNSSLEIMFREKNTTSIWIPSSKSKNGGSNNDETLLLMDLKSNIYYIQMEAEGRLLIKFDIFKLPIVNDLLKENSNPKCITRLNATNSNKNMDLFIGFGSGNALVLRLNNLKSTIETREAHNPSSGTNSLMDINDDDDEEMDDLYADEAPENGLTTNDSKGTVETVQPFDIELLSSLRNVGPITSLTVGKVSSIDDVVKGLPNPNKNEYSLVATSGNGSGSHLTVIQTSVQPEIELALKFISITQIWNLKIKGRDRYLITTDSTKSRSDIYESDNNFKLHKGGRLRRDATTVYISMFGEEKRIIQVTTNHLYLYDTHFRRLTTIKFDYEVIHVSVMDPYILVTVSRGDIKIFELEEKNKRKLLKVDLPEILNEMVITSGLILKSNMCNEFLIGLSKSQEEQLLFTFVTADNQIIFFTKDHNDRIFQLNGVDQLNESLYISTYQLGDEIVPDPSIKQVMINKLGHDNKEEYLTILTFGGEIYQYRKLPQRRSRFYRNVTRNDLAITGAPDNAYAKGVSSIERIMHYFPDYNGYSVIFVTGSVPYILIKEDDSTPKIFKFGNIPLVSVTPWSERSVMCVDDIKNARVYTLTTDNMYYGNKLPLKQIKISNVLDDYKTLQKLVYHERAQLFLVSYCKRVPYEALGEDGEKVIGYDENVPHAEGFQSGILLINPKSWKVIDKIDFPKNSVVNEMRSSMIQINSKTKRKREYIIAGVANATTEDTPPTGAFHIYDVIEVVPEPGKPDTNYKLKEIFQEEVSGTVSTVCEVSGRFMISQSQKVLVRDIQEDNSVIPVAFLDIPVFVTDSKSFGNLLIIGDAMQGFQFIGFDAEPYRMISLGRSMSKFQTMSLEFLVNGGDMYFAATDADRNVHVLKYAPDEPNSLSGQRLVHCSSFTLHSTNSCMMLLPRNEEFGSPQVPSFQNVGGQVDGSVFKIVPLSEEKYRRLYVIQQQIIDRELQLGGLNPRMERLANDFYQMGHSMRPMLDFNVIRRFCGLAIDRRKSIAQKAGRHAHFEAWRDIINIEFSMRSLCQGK
# B1: Cft2(S), residues 1-720 (domain or fragment, S. cerevisiae, UniProt Q12102 1-720, looked up)
# chain: MTYKYNCCDDGSGTTVGSVVRFDNVTLLIDPGWNPSKVSYEQCIKYWEKVIPEIDVIILSQPTIECLGAHSLLYYNFTSHFISRIQVYATLPVINLGRVSTIDSYASAGVIGPYDTNKLDLEDIEISFDHIVPLKYSQLVDLRSRYDGLTLLAYNAGVCPGGSIWCISTYSEKLVYAKRWNHTRDNILNAASILDATGKPLSTLMRPSAIITTLDRFGSSQPFKKRSKIFKDTLKKGLSSDGSVIIPVDMSGKFLDLFTQVHELLFESTKINAHTQVPVLILSYARGRTLTYAKSMLEWLSPSLLKTWENRNNTSPFEIGSRIKIIAPNELSKYPGSKICFVSEVGALINEVIIKVGNSEKTTLILTKPSFECASSLDKILEIVEQDERNWKTFPEDGKSFLCDNYISIDTIKEEPLSKEETEAFKVQLKEKKRDRNKKILLVKRESKKLANGNAIIDDTNGERAMRNQDILVENVNGVPPIDHIMGGDEDDDEEEENDNLLNLLKDNSEKSAAKKNTEVPVDIIIQPSAASKHKMFPFNPAKIKKDDYGTVVDFTMFLPDDSDNVNQNSRKRPLKDGAKTTSPVNEEDNKNEEEDGYNMSDPISKRSKHRASRYSGFSGTGEAENFDNLDYLKIDKTLSKRTISTVNVQLKCSVVILNLQSLVDQRSASIIWPSLKSRKIVLSAPKQIQNEEITAKLIKKNIEVVNMPLNKIVEFSTTI
# notes: Cft2, S. cerevisiae, residues 1-720, lacks the disordered C-terminal region; also called Cft2(short); truncated version of Cft2; source: E. coli BL21 Star (DE3), purified (Ni-NTA, 3C cleavage, MonoQ, Superdex 200)
# Tests used:
# [1] = biological target: T2, S. cerevisiae polymerase module with an SII tag on Pfs2 (S. cerevisiae, UniProt Q06632 1-1357; P29468 1-568; P42841 1-465; P45976 1-327; Q06102 2-208); experiment: pull-down; Sf9 cells co-infected with viruses for the polymerase module (SII on Pfs2) and for untagged Cft2 and Ysh1; Strep-Tactin in Buffer A, then MonoQ; conditions: partners not purified
# T2 construct: Cft1, S. cerevisiae; Pap1, S. cerevisiae; Pfs2, S. cerevisiae; Fip1, S. cerevisiae; Yth1, S. cerevisiae; That Construct B is the plasmid of this co-infection is surmised from the SII tag on Pfs2; also called Construct B (Cft1-Pap1-Pfs2-SII-Fip1-Yth1); source: Sf9, co-infected with a virus for untagged Cft2 and Ysh1; in lysate, and purified with Cft2 (Strep-Tactin, MonoQ); copies: + + + +
# T2 sequence (P29468 whole entry, chain 2 of 2): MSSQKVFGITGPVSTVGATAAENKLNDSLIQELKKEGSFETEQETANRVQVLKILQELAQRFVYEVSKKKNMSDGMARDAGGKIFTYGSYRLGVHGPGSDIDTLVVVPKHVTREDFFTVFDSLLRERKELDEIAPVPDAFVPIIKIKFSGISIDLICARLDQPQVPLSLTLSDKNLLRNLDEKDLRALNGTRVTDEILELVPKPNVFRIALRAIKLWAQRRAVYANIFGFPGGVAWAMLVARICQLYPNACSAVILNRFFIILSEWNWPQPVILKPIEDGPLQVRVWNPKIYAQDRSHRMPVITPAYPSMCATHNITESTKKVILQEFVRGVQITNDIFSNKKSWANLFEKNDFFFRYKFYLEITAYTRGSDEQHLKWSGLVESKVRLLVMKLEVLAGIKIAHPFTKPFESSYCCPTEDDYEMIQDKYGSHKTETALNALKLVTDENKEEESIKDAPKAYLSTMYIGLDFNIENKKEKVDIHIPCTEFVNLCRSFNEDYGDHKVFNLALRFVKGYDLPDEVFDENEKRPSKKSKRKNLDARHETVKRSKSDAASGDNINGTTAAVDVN
# T2 sequence (P45976 whole entry, chain 4 of 2): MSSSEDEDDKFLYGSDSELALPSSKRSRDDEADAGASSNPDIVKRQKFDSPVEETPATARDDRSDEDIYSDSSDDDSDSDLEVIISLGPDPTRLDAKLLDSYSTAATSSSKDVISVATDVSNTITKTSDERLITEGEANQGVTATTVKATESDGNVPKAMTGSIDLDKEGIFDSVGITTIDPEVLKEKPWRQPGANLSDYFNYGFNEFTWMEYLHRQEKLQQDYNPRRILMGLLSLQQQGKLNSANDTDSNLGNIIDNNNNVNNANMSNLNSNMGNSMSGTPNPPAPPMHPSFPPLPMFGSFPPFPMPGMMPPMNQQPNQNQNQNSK
# Cft2(S), residues 1-720 [2] = biological target: B1; experiment: cross-linking; polymerase module-Cft2(S)-Mpe1-RNA complex (0.5 mg/ml) with 2 mM sulfo-SDA for 2 h on ice, UV 365 nm for 15 min; 20 mM HEPES, 50 mM NaCl, 0.5 mM TCEP, pH 8.0; mass spectrometry, 1 % FDR on link level; conditions: both partners purified
# [3] = biological target: T2, S. cerevisiae polymerase module with an …; experiment: SEC; analytical, Superose 6 Increase 3.2/300, SEC 50 buffer (20 mM HEPES pH 8, 50 mM NaCl, 0.5 mM TCEP); 5 μM polymerase module or polymerase module-Cft2 complex, 15 μM Mpe1 or variant, 10 μM Cft2(S) or 720 μM yPIM peptide; with or without 10 μM precleaved CYC1 RNA; conditions: both partners purified
# Cft2(S), residues 1-720 [4] = biological target: B1; experiment: cryo-EM structure; sample of polymerase module, Mpe1, Cft2(S) and precleaved CYC1 RNA; only the polymerase module and the yPIM of Cft2 are seen in the map; conditions: both partners purified
# Cft1 = biological target: T1, Cft1; experiment: as above; conditions: both partners purified
binder,measurement,setting,value
"Cft2 (untagged, co-expressed with the polymerase module) (natural protein, S. cerevisiae, UniProt Q12102 1-859, looked up, Cft2, S. cerevisiae, pseudo-nuclease subunit of the nuclease module of CPF; source: Sf9, co-infected with viruses for the polymerase module (Pfs2-SII) and Ysh1-Cft2; in lysate, and co-purified with the polymerase module (Strep-Tactin, MonoQ)) MTYKYNCCDDGSGTTVGSVVRFDNVTLLIDPGWNPSKVSYEQCIKYWEKVIPEIDVIILSQPTIECLGAHSLLYYNFTSHFISRIQVYATLPVINLGRVSTIDSYASAGVIGPYDTNKLDLEDIEISFDHIVPLKYSQLVDLRSRYDGLTLLAYNAGVCPGGSIWCISTYSEKLVYAKRWNHTRDNILNAASILDATGKPLSTLMRPSAIITTLDRFGSSQPFKKRSKIFKDTLKKGLSSDGSVIIPVDMSGKFLDLFTQVHELLFESTKINAHTQVPVLILSYARGRTLTYAKSMLEWLSPSLLKTWENRNNTSPFEIGSRIKIIAPNELSKYPGSKICFVSEVGALINEVIIKVGNSEKTTLILTKPSFECASSLDKILEIVEQDERNWKTFPEDGKSFLCDNYISIDTIKEEPLSKEETEAFKVQLKEKKRDRNKKILLVKRESKKLANGNAIIDDTNGERAMRNQDILVENVNGVPPIDHIMGGDEDDDEEEENDNLLNLLKDNSEKSAAKKNTEVPVDIIIQPSAASKHKMFPFNPAKIKKDDYGTVVDFTMFLPDDSDNVNQNSRKRPLKDGAKTTSPVNEEDNKNEEEDGYNMSDPISKRSKHRASRYSGFSGTGEAENFDNLDYLKIDKTLSKRTISTVNVQLKCSVVILNLQSLVDQRSASIIWPSLKSRKIVLSAPKQIQNEEITAKLIKKNIEVVNMPLNKIVEFSTTIKTLDISIDSNLDNLLKWQRISDSYTVATVVGRLVKESLPQVNNHQKTASRSKLVLKPLHGSSRSHKTGALSIGDVRLAQLKKLLTEKNYIAEFKGEGTLVINEKVAVRKINDAETIIDGTPSELFDTVKKLVTDMLAKI",binding result,[1],binds
"Yth1 (natural protein, S. cerevisiae, Yth1, S. cerevisiae, subunit of the polymerase module of CPF; E. coli codon-optimized gene (GeneArt); source: Sf9, baculovirus, co-expressed with Mpe1-SII, in lysate; also as subunit of the purified polymerase module (Sf9)) MSLIHPDTAKYPFKFEPFLRQEYSFSLDPDRPICEFYNSREGPKSCPRGPLCPKKHVLPIFQNKIVCRHWLRGLCKKNDQCEYLHEYNLRKMPECVFFSKNGYCTQSPDCQYLHIDPASKIPKCENYEMGFCPLGSSCPRRHIKKVFCQRYMTGFCPLGKDECDMEHPQFIIPDEGSKLRIKRDDEINTRKMDEEKERRLNAIINGEV",binding result,"Cft2(S), residues 1-720 [2]",binds
"StrepII-tagged Mpe1 (Mpe1-SII) (natural protein, S. cerevisiae, Mpe1, S. cerevisiae, subunit of the nuclease module of CPF; no cleavage is told; also called WT Mpe1; Mpe1-3C-SII; source: Sf9, baculovirus; in lysate, and purified (Strep-Tactin, MonoQ)) MSSTIFYRFKSQRNTSRILFDGTGLTVFDLKREIIQENKLGDGTDFQLKIYNPDTEEEYDDDAFVIPRSTSVIVKRSPAIKSFSVHSRLKGNVGAAALGNATRYVTGRPRVLQKRQHTATTTANVSGTTEEERIASMFATQENQWEQTQEEMSAATPVFFKSQTNKNSAQENEGPPPPGYMCYRCGGRDHWIKNCPTNSDPNFEGKRIRRTTGIPKKFLKSIEIDPETMTPEEMAQRKIMITDEGKFVVQVEDKQSWEDYQRKRENRQIDGDETIWRKGHFKDLPDDLKCPLTGGLLRQPVKTSKCCNIDFSKEALENALVESDFVCPNCETRDILLDSLVPDQDKEKEVETFLKKQEELHGSSKDGNQPETKKMKLMDPTGTAGLNNNTSLPTSVNNGGTPVPPVPLPFGIPPFPMFPMPFMPPTATITNPHQADASPKK",binding result,[3],binds
"Pfs2 (natural protein, S. cerevisiae, Pfs2, S. cerevisiae, subunit of the polymerase module of CPF; E. coli codon-optimized gene (GeneArt); source: Sf9, baculovirus, co-expressed with Mpe1-SII, in lysate; also as subunit of the purified polymerase module (Sf9)) MDGHNQNQYQNQNQIQQSQQPPLKKYVTQRRSVDVSSPYINLYYNRRHGLPNLVVEPETSYTIDIMPPNAYRGRDRVINLPSKFTHLSSNKVKHVIPAIQWTPEGRRLVVATYSGEFSLWNASSFTFETLMQAHDSAVTTMKYSHDSDWMISGDADGMIKIWQPNFSMVKEIDAAHTESIRDMAFSSNDSKFVTCSDDNILKIWNFSNGKQERVLSGHHWDVKSCDWHPEMGLIASASKDNLVKLWDPRSGNCISSILKFKHTVLKTRFQPTKGNLLMAISKDKSCRVFDIRYSMKELMCVRDETDYMTLEWHPINESMFTLACYDGSLKHFDLLQNLNEPILTIPYAHDKCITSLSYNPVGHIFATAAKDRTIRFWTRARPIDPNAYDDPTYNNKKINGWFFGINNDINAVREKSEFGAAPPPPATLEPHALPNMNGFINKKPRQEIPGIDSNIKSSTLPGLSI",binding result,"Cft2(S), residues 1-720 [4]",binds
B1,binding result,Cft1,binds

# — publication PMC9380774, “Mpe1 senses the binding of pre-mRNA and controls 3′ end processing by CPF” (Molecular Cell, 2022)
